What was measured:
[1] = tested on: PPIs of the SKEMPI data set (by PDBID); assay: SKEMPI experimental ΔΔG, single mutations to alanine; assay type: binding; settings: for sk_class (class of the SKEMPI experimental ΔΔG): ref SKEMPI; for sk_class: class of the SKEMPI experimental ΔΔG
[2] = tested on: PPIs of the SKEMPI data set (by PDBID); settings: ref SKEMPI, cited from earlier work; for sk_ddG_kJ (SKEMPI experimental ΔΔG): r_group FAMILYVW
[3] = single mutation to alanine, sheet sortedByGroup

| Molecule | sk_class [1] | sk_ddG_kJ (SKEMPI experimental ΔΔG) [2, 3] | further results |
| --- | --- | --- | --- |
| 1A22 IB305A (protein, UniProt P10912 19-264, looked up, variant I105A, extracellular domain) extracellular domain: FSGSEATAAILSRAPWSLQSVNPGLKTNSSKEPKFTKCRSPERETFSCHWTDEVHHGTKNLGPIQLFYTRRNTQEWTQEWKECPDYVSAGENSCYFNSSFTSIWAPYCIKLTSNGGTVDEKCFSVDEIVQPDPPIALNWTLLNVSLTGIHADIQVRWEAPRNADIQKGWMVLEYELQYKEVNETKWKMMDPILTTSVPVYSLKVDKEYEVRVRSKQRNSGNYGEFSEVLYVTLPQMSQFTCEEDFY |  |  | sk_class (class of the SKEMPI experimental ΔΔG) ([1]; Positive / Neutral / Negative by ΔΔG threshold 4.184 kJ/mol): Neutral (neutral (little effect) 4.184 kJ/mol < ΔΔG > −4.184 kJ/mol); sk_ddG_kJ (SKEMPI experimental ΔΔG of binding, mutation to alanine) ([2]; single mutation to alanine in the complex of the given PDBID): 0.54 kJ |
| 1A22 EB291A (protein, UniProt P10912 19-264, looked up, variant E91A, extracellular domain) extracellular domain: FSGSEATAAILSRAPWSLQSVNPGLKTNSSKEPKFTKCRSPERETFSCHWTDEVHHGTKNLGPIQLFYTRRNTQEWTQEWKECPDYVSAGANSCYFNSSFTSIWIPYCIKLTSNGGTVDEKCFSVDEIVQPDPPIALNWTLLNVSLTGIHADIQVRWEAPRNADIQKGWMVLEYELQYKEVNETKWKMMDPILTTSVPVYSLKVDKEYEVRVRSKQRNSGNYGEFSEVLYVTLPQMSQFTCEEDFY |  |  | sk_class (class of the SKEMPI experimental ΔΔG) ([1]; class by ΔΔG threshold 4.184 kJ/mol): Neutral (neutral (little effect) 4.184 kJ/mol < ΔΔG > −4.184 kJ/mol); sk_ddG_kJ (SKEMPI experimental ΔΔG, mutation to alanine) ([2]; single mutation to alanine, PPI given by PDBID, sheet sortedByGroup, r_group DERKH): 0.75 kJ |
| 1AHW YC157A (protein, UniProt P13726 33-251, looked up, variant Y157A, extracellular domain) extracellular domain: SGTTNTVAAYNLTWKSTNFKTILEWEPKPVNQVYTVQISTKSGDWKSKCFYTTDTECDLTDEIVKDVKQTYLARVFSYPAGNVESTGSAGEPLYENSPEFTPYLETNLGQPTIQSFEQVGTKVNVTVEDERTLVRRNNTFLSLRDVFGKDLIYTLYAWKSSSSGKKTAKTNTNEFLIDVDKGENYCFSVQAVIPSRTVNRKSTDSPVECMGQEKGEFRE | Negative (negative (affinity enhancing) ΔΔG ≤ −4.184 kJ/mol) | -7.91 kJ |  |
| 1AHW LC176A (protein, UniProt P13726 33-251, looked up, variant L176A, extracellular domain) extracellular domain: SGTTNTVAAYNLTWKSTNFKTILEWEPKPVNQVYTVQISTKSGDWKSKCFYTTDTECDLTDEIVKDVKQTYLARVFSYPAGNVESTGSAGEPLYENSPEFTPYLETNLGQPTIQSFEQVGTKVNVTVEDERTLVRRNNTFLSLRDVFGKDLIYTLYYWKSSSSGKKTAKTNTNEFAIDVDKGENYCFSVQAVIPSRTVNRKSTDSPVECMGQEKGEFRE | Neutral (neutral (little effect) 4.184 kJ/mol < ΔΔG > −4.184 kJ/mol) | 4.14 kJ |  |
| 1AHW VC198A (protein, UniProt P13726 33-251, looked up, variant V198A, extracellular domain) extracellular domain: SGTTNTVAAYNLTWKSTNFKTILEWEPKPVNQVYTVQISTKSGDWKSKCFYTTDTECDLTDEIVKDVKQTYLARVFSYPAGNVESTGSAGEPLYENSPEFTPYLETNLGQPTIQSFEQVGTKVNVTVEDERTLVRRNNTFLSLRDVFGKDLIYTLYYWKSSSSGKKTAKTNTNEFLIDVDKGENYCFSVQAVIPSRTANRKSTDSPVECMGQEKGEFRE | Neutral (neutral (little effect) 4.184 kJ/mol < ΔΔG > −4.184 kJ/mol) | -1.30 kJ |  |
| 1A4Y WA261A (protein, UniProt P13489 2-461, looked up, variant W261A) Ribonuclease inhibitor: SLDIQSLDIQCEELSDARWAELLPLLQQCQVVRLDDCGLTEARCKDISSALRVNPALAELNLRSNELGDVGVHCVLQGLQTPSCKIQKLSLQNCCLTGAGCGVLSSTLRTLPTLQELHLSDNLLGDAGLQLLCEGLLDPQCRLEKLQLEYCSLSAASCEPLASVLRAKPDFKELTVSNNDINEAGVRVLCQGLKDSPCQLEALKLESCGVTSDNCRDLCGIVASKASLRELALGSNKLGDVGMAELCPGLLHPSSRLRTLAIWECGITAKGCGDLCRVLRAKESLKELSLAGNELGDEGARLLCETLLEPGCQLESLWVKSCSFTAACCSHFSSVLAQNRFLLELQISNNRLEDAGVRELCQGLGQPGSVLRVLWLADCDVSDSSCSSLAATLLANHSLRELDLSNNCLGDAGILQLVESVRQPGCLLEQLVLYDIYWSEEMEDRLQALEKDKPSLRVIS | Neutral (neutral (little effect) 4.184 kJ/mol < ΔΔG > −4.184 kJ/mol) | 0.38 kJ |  |
| 1A4Y YA437A (protein, UniProt P13489 2-461, looked up, variant Y437A) Ribonuclease inhibitor: SLDIQSLDIQCEELSDARWAELLPLLQQCQVVRLDDCGLTEARCKDISSALRVNPALAELNLRSNELGDVGVHCVLQGLQTPSCKIQKLSLQNCCLTGAGCGVLSSTLRTLPTLQELHLSDNLLGDAGLQLLCEGLLDPQCRLEKLQLEYCSLSAASCEPLASVLRAKPDFKELTVSNNDINEAGVRVLCQGLKDSPCQLEALKLESCGVTSDNCRDLCGIVASKASLRELALGSNKLGDVGMAELCPGLLHPSSRLRTLWIWECGITAKGCGDLCRVLRAKESLKELSLAGNELGDEGARLLCETLLEPGCQLESLWVKSCSFTAACCSHFSSVLAQNRFLLELQISNNRLEDAGVRELCQGLGQPGSVLRVLWLADCDVSDSSCSSLAATLLANHSLRELDLSNNCLGDAGILQLVESVRQPGCLLEQLVLYDIAWSEEMEDRLQALEKDKPSLRVIS | Neutral (neutral (little effect) 4.184 kJ/mol < ΔΔG > −4.184 kJ/mol) | 3.43 kJ |  |
| 1A4Y WA375A (protein, UniProt P13489 2-461, looked up, variant W375A) Ribonuclease inhibitor: SLDIQSLDIQCEELSDARWAELLPLLQQCQVVRLDDCGLTEARCKDISSALRVNPALAELNLRSNELGDVGVHCVLQGLQTPSCKIQKLSLQNCCLTGAGCGVLSSTLRTLPTLQELHLSDNLLGDAGLQLLCEGLLDPQCRLEKLQLEYCSLSAASCEPLASVLRAKPDFKELTVSNNDINEAGVRVLCQGLKDSPCQLEALKLESCGVTSDNCRDLCGIVASKASLRELALGSNKLGDVGMAELCPGLLHPSSRLRTLWIWECGITAKGCGDLCRVLRAKESLKELSLAGNELGDEGARLLCETLLEPGCQLESLWVKSCSFTAACCSHFSSVLAQNRFLLELQISNNRLEDAGVRELCQGLGQPGSVLRVLALADCDVSDSSCSSLAATLLANHSLRELDLSNNCLGDAGILQLVESVRQPGCLLEQLVLYDIYWSEEMEDRLQALEKDKPSLRVIS | Positive (positive (a hot residue) ΔΔG ≥ 4.184 kJ/mol) | 4.31 kJ |  |
| 1A4Y YA434A (protein, UniProt P13489 2-461, looked up, variant Y434A) Ribonuclease inhibitor: SLDIQSLDIQCEELSDARWAELLPLLQQCQVVRLDDCGLTEARCKDISSALRVNPALAELNLRSNELGDVGVHCVLQGLQTPSCKIQKLSLQNCCLTGAGCGVLSSTLRTLPTLQELHLSDNLLGDAGLQLLCEGLLDPQCRLEKLQLEYCSLSAASCEPLASVLRAKPDFKELTVSNNDINEAGVRVLCQGLKDSPCQLEALKLESCGVTSDNCRDLCGIVASKASLRELALGSNKLGDVGMAELCPGLLHPSSRLRTLWIWECGITAKGCGDLCRVLRAKESLKELSLAGNELGDEGARLLCETLLEPGCQLESLWVKSCSFTAACCSHFSSVLAQNRFLLELQISNNRLEDAGVRELCQGLGQPGSVLRVLWLADCDVSDSSCSSLAATLLANHSLRELDLSNNCLGDAGILQLVESVRQPGCLLEQLVLADIYWSEEMEDRLQALEKDKPSLRVIS | Positive (positive (a hot residue) ΔΔG ≥ 4.184 kJ/mol) | 13.64 kJ |  |
| 1A4Y WA263A (protein, UniProt P13489 2-461, looked up, variant W263A) Ribonuclease inhibitor: SLDIQSLDIQCEELSDARWAELLPLLQQCQVVRLDDCGLTEARCKDISSALRVNPALAELNLRSNELGDVGVHCVLQGLQTPSCKIQKLSLQNCCLTGAGCGVLSSTLRTLPTLQELHLSDNLLGDAGLQLLCEGLLDPQCRLEKLQLEYCSLSAASCEPLASVLRAKPDFKELTVSNNDINEAGVRVLCQGLKDSPCQLEALKLESCGVTSDNCRDLCGIVASKASLRELALGSNKLGDVGMAELCPGLLHPSSRLRTLWIAECGITAKGCGDLCRVLRAKESLKELSLAGNELGDEGARLLCETLLEPGCQLESLWVKSCSFTAACCSHFSSVLAQNRFLLELQISNNRLEDAGVRELCQGLGQPGSVLRVLWLADCDVSDSSCSSLAATLLANHSLRELDLSNNCLGDAGILQLVESVRQPGCLLEQLVLYDIYWSEEMEDRLQALEKDKPSLRVIS | Positive (positive (a hot residue) ΔΔG ≥ 4.184 kJ/mol) | 4.85 kJ |  |
| 1A4Y IA459A (protein, UniProt P13489 2-461, looked up, variant I459A) Ribonuclease inhibitor: SLDIQSLDIQCEELSDARWAELLPLLQQCQVVRLDDCGLTEARCKDISSALRVNPALAELNLRSNELGDVGVHCVLQGLQTPSCKIQKLSLQNCCLTGAGCGVLSSTLRTLPTLQELHLSDNLLGDAGLQLLCEGLLDPQCRLEKLQLEYCSLSAASCEPLASVLRAKPDFKELTVSNNDINEAGVRVLCQGLKDSPCQLEALKLESCGVTSDNCRDLCGIVASKASLRELALGSNKLGDVGMAELCPGLLHPSSRLRTLWIWECGITAKGCGDLCRVLRAKESLKELSLAGNELGDEGARLLCETLLEPGCQLESLWVKSCSFTAACCSHFSSVLAQNRFLLELQISNNRLEDAGVRELCQGLGQPGSVLRVLWLADCDVSDSSCSSLAATLLANHSLRELDLSNNCLGDAGILQLVESVRQPGCLLEQLVLYDIYWSEEMEDRLQALEKDKPSLRVAS | Neutral (neutral (little effect) 4.184 kJ/mol < ΔΔG > −4.184 kJ/mol) | 2.80 kJ |  |
| 1A4Y WA318A (protein, UniProt P13489 2-461, looked up, variant W318A) Ribonuclease inhibitor: SLDIQSLDIQCEELSDARWAELLPLLQQCQVVRLDDCGLTEARCKDISSALRVNPALAELNLRSNELGDVGVHCVLQGLQTPSCKIQKLSLQNCCLTGAGCGVLSSTLRTLPTLQELHLSDNLLGDAGLQLLCEGLLDPQCRLEKLQLEYCSLSAASCEPLASVLRAKPDFKELTVSNNDINEAGVRVLCQGLKDSPCQLEALKLESCGVTSDNCRDLCGIVASKASLRELALGSNKLGDVGMAELCPGLLHPSSRLRTLWIWECGITAKGCGDLCRVLRAKESLKELSLAGNELGDEGARLLCETLLEPGCQLESLAVKSCSFTAACCSHFSSVLAQNRFLLELQISNNRLEDAGVRELCQGLGQPGSVLRVLWLADCDVSDSSCSSLAATLLANHSLRELDLSNNCLGDAGILQLVESVRQPGCLLEQLVLYDIYWSEEMEDRLQALEKDKPSLRVIS | Positive (positive (a hot residue) ΔΔG ≥ 4.184 kJ/mol) | 6.19 kJ |  |

— PMC6804253, “Predicting and Experimentally Validating Hot-Spot Residues at Protein–Protein Interfaces” (ACS Chemical Biology, 2019)
